# According to the supplement of paper PMC11246515:
# ± gives the standard deviation of the averaged measurements.
# Assay: total protein half-life in vivo (active degradation + dilution); higher = more stable protein
# [1] = E. coli NCM3722 delta-smpB, growth: N-lim chemostat, doubling time 6 h
# [2] = wild type E. coli NCM3722, growth: C-lim chemostat, doubling time 6 h
# [3] = E. coli NCM3722 delta-clpP delta-lon delta-hslV, growth: N-lim chemostat, doubling time 6 h
# [4] = E. coli NCM3722 delta-hslV, growth: N-lim chemostat, doubling time 6 h
# [5] = E. coli NCM3722 delta-lon, growth: N-lim chemostat, doubling time 6 h
# [6] = wild type E. coli NCM3722, growth: C-lim chemostat, doubling time 3 h
# [7] = wild type E. coli NCM3722, growth: C-lim chemostat, doubling time 12 h
# [8] = wild type E. coli NCM3722, growth: N-lim chemostat, doubling time 6 h
# [9] = wild type E. coli NCM3722, growth: N-lim chemostat, doubling time 12 h
# [10] = wild type E. coli NCM3722, growth: P-lim chemostat, doubling time 6 h
# [11] = wild type E. coli NCM3722, growth: P-lim chemostat, doubling time 12 h
# [12] = E. coli NCM3722 delta-clpP, growth: N-lim chemostat, doubling time 6 h
Sequence,total protein half-life in vivo [1] [h],total protein half-life in vivo [2] [h],total protein half-life in vivo [3] [h],total protein half-life in vivo [4] [h],total protein half-life in vivo [5] [h],total protein half-life in vivo [6] [h],total protein half-life in vivo [7] [h],total protein half-life in vivo [8] [h],total protein half-life in vivo [9] [h],total protein half-life in vivo [10] [h],total protein half-life in vivo [11] [h],total protein half-life in vivo [12] [h]
MFDYILSLGGTVFVPIIMIVIGLIFRIPWLQAIKAGVTVGIGFVGMGLVIVMAIDSLSPPIKVMIERFGLALHVFDVGAGPASGVGYATAIGAMIIPVIFLLNVAMLVTRLTKTMNVDIYNYWHYAITGTVVQLMTGSLIYGVLGAICHAALSLKMADWTAKRVQNIVGLEGISIPQGYGSSSVPLFVLLDAIYEKIPFMKGRNIDAQEIQKRYGMVGDPVIIGVVLGLIFGLAAGEGFKGCASLMITVAAIMVLFPRMIRLIVEGLLPISDGARKFFQKYFKGREVYIGLDTAVTLGHPTTIAVGLLLIPIMLILASILPGNKVLPLADLPVAPFFICMATVIHRGDLVRTLISGVIVMITVLLIATQFAPYFTEMALKGGFSFAGESAQISALSVGNMFGWSISELMSLGIIGVVVAVGIVASVVLFLRKRELSE,7.4,6 ± 0.68,,,,,,,,,,
MFEIHPVKKVSVVIPVYNEQESLPELIRRTTTACESLGKEYEILLIDDGSSDNSAHMLVEASQAENSHIVSILLNRNYGQHSAIMAGFSHVTGDLIITLDADLQNPPEEIPRLVAKADEGYDVVGTVRQNRQDSWFRKTASKMINRLIQRTTGKAMGDYGCMLRAYRRHIVDAMLHCHERSTFIPILANIFARRAIEIPVHHAEREFGESKYSFMRLINLMYDLVTCLTTTPLRMLSLLGSIIAIGGFSIAVLLVILRLTFGPQWAAEGVFMLFAVLFTFIGAQFIGMGLLGEYIGRIYTDVRARPRYFVQQVIRPSSKENE,6.14 ± 0.12,6.77 ± 1.7,5.758 ± 0.026,6.356 ± 0.027,6.156 ± 0.045,2.84 ± 0.4,11.6 ± 0.56,6.21 ± 0.57,12.6 ± 0.58,6.08 ± 0.52,12.1 ± 0.46,
MFENITAAPADPILGLADLFRADERPGKINLGIGVYKDETGKTPVLTSVKKAEQYLLENETTKNYLGIDGIPEFGRCTQELLFGKGSALINDKRARTAQTPGGTGALRVAADFLAKNTSVKRVWVSNPSWPNHKSVFNSAGLEVREYAYYDAENHTLDFDALINSLNEAQAGDVVLFHGCCHNPTGIDPTLEQWQTLAQLSVEKGWLPLFDFAYQGFARGLEEDAEGLRAFAAMHKELIVASSYSKNFGLYNERVGACTLVAADSETVDRAFSQMKAAIRANYSNPPAHGASVVATILSNDALRAIWEQELTDMRQRIQRMRQLFVNTLQEKGANRDFSFIIKQNGMFSFSGLTKEQVLRLREEFGVYAVASGRVNVAGMTPDNMAPLCEAIVAVL,3.789 ± 0.034,5.555 ± 0.041,4.59 ± 0.58,3.88 ± 0.059,4.44 ± 0.22,3.16 ± 0.23,10.29 ± 0.024,3.86 ± 0.14,5.97 ± 0.14,5.69 ± 0.19,11.84 ± 0.03,4.02 ± 0.34
MFEPMELTNDAVIKVIGVGGGGGNAVEHMVRERIEGVEFFAVNTDAQALRKTAVGQTIQIGSGITKGLGAGANPEVGRNAADEDRDALRAALEGADMVFIAAGMGGGTGTGAAPVVAEVAKDLGILTVAVVTKPFNFEGKKRMAFAEQGITELSKHVDSLITIPNDKLLKVLGRGISLLDAFGAANDVLKGAVQGIAELITRPGLMNVDFADVRTVMSEMGYAMMGSGVASGEDRAEEAAEMAISSPLLEDIDLSGARGVLVNITAGFDLRLDEFETVGNTIRAFASDNATVVIGTSLDPDMNDELRVTVVATGIGMDKRPEITLVTNKQVQQPVMDRYQQHGMAPLTQEQKPVAKVVNDNAPQTAKEPDYLDIPAFLRKQAD [P0A9A6],1.95 ± 0.0047,1.97 ± 0.13,5.406 ± 0.043,1.86 ± 0.3,1.95 ± 0.19,1.25 ± 0.079,2.7 ± 0.23,1.79 ± 0.093,2.79 ± 0.26,2.53 ± 0.23,4.37 ± 0.54,5.13 ± 0.67
MFGKGGLGNLMKQAQQMQEKMQKMQEEIAQLEVTGESGAGLVKVTINGAHNCRRVEIDPSLLEDDKEMLEDLVAAAFNDAARRIEETQKEKMASVSSGMQLPPGFKMPF [P0A8B5],3.28 ± 0.64,4.44 ± 0.19,6.29 ± 0.61,3.59 ± 0.49,4.57 ± 0.16,2.68 ± 0.07,7.56 ± 0.1,3.02 ± 0.071,5.05 ± 0.83,4.24 ± 0.68,9.46 ± 0.42,4.38 ± 0.044
MFGYRSNVPKVRLTTDRLVVRLVHDRDAWRLADYYAENRHFLKPWEPVRDESHCYPSGWQARLGMINEFHKQGSAFYFGLFDPDEKEIIGVANFSNVVRGSFHACYLGYSIGQKWQGKGLMFEALTAAIRYMQRTQHIHRIMANYMPHNKRSGDLLARLGFEKEGYAKDYLLIDGQWRDHVLTALTTPDWTPGR [P0A948],4.098 ± 0.021,5.02 ± 0.078,4.56 ± 0.93,3.89 ± 0.49,4.189 ± 0.017,3.07 ± 0.059,8.98 ± 0.43,3.57 ± 0.065,5.92 ± 0.15,5.38 ± 0.41,,3.52 ± 0.15
MFIPSIYLHQQLHYCKTAILNWSRKMALSRQKFTFERLRRFTLPEGKKQTFLWDADVTTLACRATSGAKAFVFQSVYAGKTLRMTIGNINDWKIDDARAEARRLQTLIDTGIDPRIAKAVKIAEAESLQAESRKTKVTFSVAWEDYLQELRTGISAKTKRPYSTRYIADHINLSSRGGESKKRGQGPTSAGPLASLLNLPLSELTPDYIAAWLSTERQNRPTVTAHAYRLLRAFIKWSNYQKKYQGIIPGDLAQDYNVRKMVPVSASKADDCLQKEQLKSWFSAVRSLNNPIASAYLQVLLLTGARREEIASLRWSDVDFKWSSMRIKDKIEGERIIPLTPYVSELLNVLAQSPNSDVNKEGWVFRSNSKSGKIIEPRSAHNRALVLAELPHISLHGLRRSFGTLAEWVEVPTGIVAQIMGHKPSALAEKHYRRRPLDLLRKWHEKIETWILNEAGITIKNNVDMR,0.692 ± 0.011,1.51 ± 0.091,4.69 ± 0.43,1.22 ± 0.19,3.07 ± 0.74,0.877 ± 0.072,3.01 ± 0.11,1.19 ± 0.41,1.97 ± 0.42,0.516,2.03 ± 0.4,1.01 ± 0.058
MFKKILFPLVALFMLAGCAKPPTTIEVSPTITLPQQDPSLMGVTVSINGADQRTDQALAKVTRDNQIVTLTASRDLRFLLQEVLEKQMTARGYMVGPNGPVNLQIIVSQLYADVSQGNVRYNIATKADIAIIATAQNGNKMTKNYRASYNVEGAFQASNKNIADAVNSVLTDTIADMSQDTSIHEFIKQNAR [P0ADA5],5.86 ± 0.59,7.64 ± 0.29,6.32 ± 1.6,,6.15 ± 0.68,> 4,12.6 ± 0.17,6.36 ± 0.12,13 ± 0.98,6.254 ± 0.035,14.94 ± 0.13,
MFKSFFPKPGTFFLSAFVWALIAVIFWQAGGGDWVARITGASGQIPISAARFWSLDFLIFYAYYIVCVGLFALFWFIYSPHRWQYWSILGTALIIFVTWFLVEVGVAVNAWYAPFYDLIQTALSSPHKVTIEQFYREVGVFLGIALIAVVISVLNNFFVSHYVFRWRTAMNEYYMANWQQLRHIEGAAQRVQEDTMRFASTLENMGVSFINAIMTLIAFLPVLVTLSAHVPELPIIGHIPYGLVIAAIVWSLMGTGLLAVVGIKLPGLEFKNQRVEAAYRKELVYGEDDATRATPPTVRELFSAVRKNYFRLYFHYMYFNIARILYLQVDNVFGLFLLFPSIVAGTITLGLMTQITNVFGQVRGAFQYLINSWTTLVELMSIYKRLRSFEHELDGDKIQEVTHTLS [P0AFY6],5.52 ± 0.15,4.97 ± 1.2,5.51 ± 0.24,5.4 ± 0.62,5.41 ± 0.43,,11.3 ± 1.3,,8.73 ± 0.38,5.77 ± 0.34,,5.35 ± 0.061
MFKSTLAAMAAVFALSALSPAAMAAKGDPHVLLTTSAGNIELELDKQKAPVSVQNFVDYVNSGFYNNTTFHRVIPGFMIQGGGFTEQMQQKKPNPPIKNEADNGLRNTRGTIAMARTADKDSATSQFFINVADNAFLDHGQRDFGYAVFGKVVKGMDVADKISQVPTHDVGPYQNVPSKPVVILSAKVLP [P0AFL3],5.59 ± 0.8,4.98 ± 0.6,5.17 ± 0.94,,6.04 ± 0.29,3.1 ± 0.19,8.28 ± 1.4,5.46 ± 0.15,10.36 ± 0.074,5.31 ± 0.43,11.5 ± 0.59,
MFLIITRDTMFFTAMKNILSKGNVVHIQNEEEIDVMLHQNAFVIIDTLMNNVFHSNFLTQIERLKPVHVIIFSPFNIKRCLGKVPVTFVPRTITIIDFVALINGSYCSVPEAAVSLSRKQHQVLSCIANQMTTEDILEKLKISLKTFYCHKHNIMMILNLKRINELVRHQHIDYLV,3.036 ± 0.0077,,3.86 ± 0.062,3.24 ± 0.28,3.74 ± 0.092,,,2.94 ± 0.13,8.12,,4.78,3.81
MFLINGHKQESLAVSDRATQFGDGCFTTARVIDGKVSLLSAHIQRLQDACQRLMISCDFWPQLEQEMKTLAAEQQNGVLKVVISRGSGGRGYSTLNSGPATRILSVTAYPAHYDRLRNEGITLALSPVRLGRNPHLAGIKHLNRLEQVLIRSHLEQTNADEALVLDSEGWVTECCAANLFWRKGNVVYTPRLDQAGVNGIMRQFCIRLLAQSSYQLVEVQASLEESLQADEMVICNALMPVMPVCACGDVSFSSATLYEYLAPLCERPN,3.89 ± 0.18,5.58 ± 0.27,5.13 ± 0.82,,4.279 ± 0.035,3.04 ± 0.24,10.9 ± 0.86,3.82 ± 0.069,6.33 ± 0.35,6.45 ± 1.4,10.7 ± 1,3.87 ± 0.15
